Test [1] has as its target T1, recombinant dimeric c-Met (R&D systems, 358-MT/CF) (human, UniProt P08581 25-932).
T1 construct: Bought product; also called Fc-Met; recombinant c-Met
The test is described as follows: competition ELISA: recombinant dimeric c-Met (100 ng/ml) captured by coated mouse anti-His antibody; antibody dilutions 30 min, then 25 ng/ml N-terminally biotinylated HGF (the competitor); strep-HRP, TMB, 620 nm; percent competition against the controls. The method, then: (§1) Competition with N-terminally biotinylated HGF for binding to immobilized c-Met was performed using an ELISA-based competition assay. Five μg/ml mouse anti-His antibodies (Serotech) was immobilized on a maxisorb plate and, after blocking with 1% casein in PBS for 2 h, 100 ng/ml recombinant dimeric c-Met was added and incubated for 1 h at room temperature. After washing, dilutions of the antibodies were added and allowed to bind to the captured c-Met for 30 minutes, before 25 ng/ml N-terminally biotinylated HGF (R&D systems, 294-HGN/CF) was added. Biotinylated HGF was incubated at room temperature for 1 h before washing. Horseradish-conjugated streptavidin (strep-HRP) was added and incubated for an additional hour. TMB was added and the plate read at 620 nm. An isotype control (hIgG1λ) was included as a control as well as murine 5D5 antibody. Competition was expressed as percentage competition as compared to the controls (strep-HRP only or hIgG1λ) and plotted against the concentration of antibodies. An IC₅₀ was calculated using GraphPad Prism (Table 10). Antibodies 13E6 and 20A11 only displaced HGF partially (about 50%), which may be related to the epitope these two mAbs recognize on the c-Met.
(ELISA stands for enzyme-linked immunosorbent assay.)

The target in test [2] is T1, recombinant dimeric c-Met (R&D systems, …). The test is described as follows: SPR, Fab-containing periplasmic extract over immobilised c-Met, dissociation 2 min. The method, then: HGF-competing clones were sequenced in the VH and the VL regions and divided into VH families based on the sequence of the CDR3 in the VH. These VH families were further tested with Surface Plasmon Resonance (SPR) for dissociation (koff) and recognition of SEMA-PSI or the extracellular domain of c-Met (Decoy). Between 1000-2000 RU of dimeric c-Met, SEMA-PSI or Decoy c-Met was immobilised on a VIA chip with amine coupling in sodium acetate buffer (pH 4.5). The Fab-containing peris were added with a flow rate of 30 μl/min and Fabs were considered to be binding if an increase of the RU was observed. The koff was measured for 2 minutes for each sample.
For orientation: Surface plasmon resonance follows binding to a sensor surface in real time, without labels.

The target of test [3] is T2, Decoy c-Met (extracellular domain of human c-Met) (human, UniProt P08581 25-932).
T2 construct: extracellular domain; also called Decoy Met; monomeric Decoy Met
T2 sequence (P08581 25-932): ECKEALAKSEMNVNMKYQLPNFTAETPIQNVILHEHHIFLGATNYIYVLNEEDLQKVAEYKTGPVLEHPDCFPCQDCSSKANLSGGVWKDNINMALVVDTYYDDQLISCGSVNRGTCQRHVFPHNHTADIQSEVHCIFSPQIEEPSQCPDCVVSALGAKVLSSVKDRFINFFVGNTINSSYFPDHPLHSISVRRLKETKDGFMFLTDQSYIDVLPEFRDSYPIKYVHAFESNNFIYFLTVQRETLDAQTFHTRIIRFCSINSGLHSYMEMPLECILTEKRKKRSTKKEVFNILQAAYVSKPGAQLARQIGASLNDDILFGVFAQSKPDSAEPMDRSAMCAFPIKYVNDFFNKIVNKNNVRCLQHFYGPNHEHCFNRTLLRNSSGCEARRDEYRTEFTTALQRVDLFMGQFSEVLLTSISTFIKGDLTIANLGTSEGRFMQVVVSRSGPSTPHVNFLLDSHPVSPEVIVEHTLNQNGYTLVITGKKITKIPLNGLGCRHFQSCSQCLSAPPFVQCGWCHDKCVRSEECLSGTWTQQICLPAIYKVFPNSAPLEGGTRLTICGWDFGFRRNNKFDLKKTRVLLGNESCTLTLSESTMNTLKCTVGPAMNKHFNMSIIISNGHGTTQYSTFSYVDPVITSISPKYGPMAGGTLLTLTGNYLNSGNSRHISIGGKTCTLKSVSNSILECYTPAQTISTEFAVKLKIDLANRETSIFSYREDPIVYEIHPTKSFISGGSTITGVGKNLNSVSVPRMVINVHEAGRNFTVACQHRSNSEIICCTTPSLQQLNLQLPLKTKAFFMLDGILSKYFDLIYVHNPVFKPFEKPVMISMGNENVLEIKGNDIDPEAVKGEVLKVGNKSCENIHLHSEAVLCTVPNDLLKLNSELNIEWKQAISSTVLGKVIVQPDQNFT
The test is described as follows: binding ELISA, human c-Met (Decoy).

For test [4], the target named is T3, Rhesus (Maccaca mulatta, US20090191580-5) c-Met ECD (Rhesus (Maccaca mulatta)).
T3 construct: extracellular domain; also called Rhesus c-Met ECD; Rhesus ECD
The test is described as follows: binding ELISA, Rhesus c-Met ECD immobilised (1 µg/ml). As to the method: Cross reactivity to Rhesus (Maccaca mulatta, US20090191580_{—}5) c-Met ECD and mouse c-Met (R&D systems cat no: 527-ME) was performed in a binding ELISA. Rhesus ECD was immobilized in PBS (1 μg/ml) on a 96-well maxisorb plate and incubated at 4° C. over night. After blocking with 1% casein in PBS, the antibodies in dilutions starting with 10 μg/ml were added and allowed to bind for 1 h at room temperature. The plate was washed and a goat anti-human Fcγ antibody (Jackson) was added and incubated for 1 h at room temperature. After washing, TMB was added and the plate read at 620 nm

Test [5] addresses T1, recombinant dimeric c-Met (R&D systems, …). The test is described as follows: competition ELISA, mAb against 25 ng/ml biotinylated HGF on captured dimeric c-Met. The method, then: as §1
Test [6] deals with T2, Decoy c-Met (extracellular domain of …). The test is described as follows: SPR: mAb (0.5 µg/ml) kept 1 h at the given temperature, run over a CM-5 chip coupled with 15,000-17,000 RU Decoy c-Met; slope between 100 and 130 s at 30 µl/min in percent of the sample kept at 4 °C.
For test [7], the target named is T1, recombinant dimeric c-Met (R&D systems, …). The test is described as follows: SPR, periplasmic Fab over Fc-Met (around 3000 RU) on CM5 chip. As to the method:
The clones were then tested for their dissociation constants by Surface Plasmon Resonance. Around 3000 RU of Fc-Met was immobilized directly onto a CM5 chip to obtain a clear binding profile from the periplasmic extracts. Clones with an improved off-rate were sent for sequencing.

T1 sequence (P08581 25-932 limits assumed): as the sequence (P08581 25-932) above

B1: 34H7 mAb (antibody, V domains shown)
VH: ELQLVESGGALVQPGGSLRLSCVESGFTFSSYAMSWVRQAPGKGLEWVSGIYKGGGPKYANSVKGRFTISRDNAKNTLYLQMNSLKPEDTAVYYCAKSGYGSSLGDFGSWGQGTQVTVSS
VL: QAGLTQLSSMSGSPGQTVTITCTGSSSNIGGGYYLSWYQHLPGTAPKLLIYSNINRASGVPDRFSGSTSGISASLTITGLQAEDEADYYCSSWDDSVSGPVFGGGTSLTVL
As for B1, the “IC50 (read off the curve)” value in test [1] was ~200 pM.

B2: 34H7 Fab (Fab, V domains shown)
VH: ELQLVESGGALVQPGGSLRLSCVESGFTFSSYAMSWVRQAPGKGLEWVSGIYKGGGPKYANSVKGRFTISRDNAKNTLYLQMNSLKPEDTAVYYCAKSGYGSSLGDFGSWGQGTQVTVSS
VL: QAGLTQLSSMSGSPGQTVTITCTGSSSNIGGGYYLSWYQHLPGTAPKLLIYSNINRASGVPDRFSGSTSGISASLTITGLQAEDEADYYCSSWDDSVSGPVFGGGTSLTVL
notes: Fab from the phage display library, tested as periplasmic extract
B2: the koff – broadly, the rate constant with which the complex falls apart – in test [2] came out at 0.0016 s⁻¹.

B3: 12G4 mAb (antibody, V domains shown)
VH: QLQLVESGGGMAQPGGSLKLSCAASGFTFDDYAMTWVRQAPGKGLEWLSTISWNDINTYYAESMKDRFTISRDNAKNTLYLQMNSLESEDTAVYYCAKRRDNYYGTSGEYDYWGQGTQVTVSS
VL: QSALTQPPSVSGTLGKTVTISCAGTSSDIGNYNYVSWYQQLPGTAPKLLIYEVNKRPSGIPDRFSGSKSGNTASLSISGLQSEDEADYYCASYRSSNNVVFGGGTKLTVL
B3: the half-maximal effective concentration (EC50) (as a rule, the concentration giving half of the maximal effect) was 420 pM in test [3] and 340 pM in test [4]. The IC50 (in general, the midpoint of a concentration-inhibition curve) in test [5] came to 260 pM.

B4: 53E3 (antibody, V domains shown)
VH: QVQLQESGPGLVKPSQTLSLTCTVSGGSITTNYYYWSWIRQSPGKGLEWIGVIAYEGSTDYSPSLKSRVTISRDTSKNQFSLQLSSVTAEDTAVYYCARDVRVIATGWATANALDAWGQGTLVTVSS
VL: QSVLTQPPSVSGSPGQTVTISCAGTSSDVGYGNYVSWYQQLPGTAPKLMIFAVSYRASGIPDRFSGSKSGNTASLTISGLQSEDEADYYCASYRSSNNAAVFGGGTKLTVL
notes: also called germlined variant of 36C4
Regarding B4, the binding result in test [6] is given as “binds”.

B5: 36C4 Fab (Fab, V domains shown)
VH: QVQLVESGPGLVKPSQTLSLTCAVSGGSITTNYYYWSWIRQSPGKGLEWMGVIAYDGSTDYSPSLKSRTSISRDTSKNQFSLQLSSVTPEDTAVYYCARDVRVIATGWATANALDAWGQGTLVTVSS
VL: QSVLTQPPSVSGSPGKTVTISCAGTSSDVGYGNYVSWYQQLPGTAPKLLIFAVSYRASGIPDRFSGSKSGNTAFLTISGLQSEDEADYYCASYRSSNNAAVFGGGTHLTVL
notes: as for B2
For the molecule B5, in test [2], the koff was 0.00064 s⁻¹.

B6: 55A12-54E (antibody, V domains shown)
VH: QVQLVESGPGLVKPSQTLSLTCTVSGGSISTNYYYWSWIRQSPGKGLEWIGVIAYEGSTDYSPSLKSRVTISRDTSKNQFSLKLSSVTAEDTAVYYCARDVRVIATGWATANALDAWGQGTLVTVSS
VL: QSALTQPPSVSGSPGQSVTISCAGTSSDVGYGNYVSWYQQPPGTAPKLLIFAVSYRASGVPDRFSGSKSGNTASLTISGLQAEDEADYYCASYRSSNNAAVFGGGTKLTVL
notes: as for B4
B6: the binding result in test [6] was “binds”.

B7: 53A11 (antibody, V domains shown)
VH: QVQLQESGPGLVKPSQTLSLTCTVSGGSITTNYYYWSWIRQSPGKGLEWIGVIAYDASTDYSPSLKSRVTISRDTSKNQFSLQLSSVTAEDTAVYYCARDVRVIATGWATANALDAWGQGTLVTVSS
VL: QSVLTQPPSVSGSPGQTVTISCAGTSSDVGYGNYVSWYQQPPGTAPKLMIFAVSYRASGIPDRFSGSKSGNTAFLTISGLQSEDEADYYCASYRSSNNAAVFGGGTKLTVL
notes: as for B4
In the case of B7, in test [6], the binding result was “binds”.

B8: 40B8 Fab (Fab, V domains shown)
VH: EVQLVQPGAELRNPGASVKVSCKASGYTFTNYVIDWVRQAPGQGLEWMGRIDPENGGTRYAQKFQGRVTFTADTSTSTAYVELSNLRSEDTAVYYCARLEDYELAYDYWGQGTQVTVSS
VL: DIVMTQTPSSVTASAGEKVTINCKSSQSVLLSSNQKNYLAWYQQRLGQSPRLLIYWASTRESGVPDRFSGSGSTTDFTLTISSFQPEDAAVYYCQQGVSFPLTFGQGTKVELK
notes: as for B2
B8: the off-rate constant (koff) in test [2] stood at 0.0013 s⁻¹.

B9: murine 5D5 antibody (antibody, V domains shown)
VH: QVQLQQSGPELVRPGASVKMSCRASGYTFTSYWLHWVKQRPGQGLEWIGMIDPSNSDTRFNPNFKDKATLNVDRSSNTAYMLLSSLTSADSAVYYCATYGSYVSPLDYWGQGTSVTVSS
VL: DIMMSQSPSSLTVSVGEKVTVSCKSSQSLLYTSSQKNYLAWYQQKPGQSPKLLIYWASTRESGVPDRFTGSGSGTDFTLTITSVKADDLAVYYCQQYYAYPWTFGGGTKLEIK
Consider B9, for which the “IC50 (read off the curve)” value in test [1] is ~800 pM.

B10: 38H10 mAb (antibody, V domains shown)
VH: EVQLVQPGVELRNPGASVKVSCKASGYIFTMNSIDWVRQAPGQGLEWMGRIDPEDGGTKYAQKFQGRVTFTADTSTSTAYVELNSLRSEDTAVYYCARVDDYYLGYDYWGQGTQVTVSS
VL: EIVMTQSPSSVTASAGEKVTINCKSSQSVLWRSNQKNYLAWYQQRLGQSPRLLISWASIRESGVPDRFSGSGSTTDFTLTISSFQPEDAAVYYCQQGYSFPYTFGSGTRLEIK
B10: the concentration for a half-maximal effect (EC50) worked out at 190 pM in test [3] and 170 pM in test [4]. Also, the “IC50 (read off the curve)” value in test [1] is ~30 pM.

B11: 38H10 Fab (Fab, V domains shown)
VH: EVQLVQPGVELRNPGASVKVSCKASGYIFTMNSIDWVRQAPGQGLEWMGRIDPEDGGTKYAQKFQGRVTFTADTSTSTAYVELNSLRSEDTAVYYCARVDDYYLGYDYWGQGTQVTVSS
VL: EIVMTQSPSSVTASAGEKVTINCKSSQSVLWRSNQKNYLAWYQQRLGQSPRLLISWASIRESGVPDRFSGSGSTTDFTLTISSFQPEDAAVYYCQQGYSFPYTFGSGTRLEIK
notes: as for B2
As to B11, the off-rate (koff) was 0.0005 s⁻¹ in test [7] and 0.0012 s⁻¹ in test [2].

B12: 20A11 Fab (Fab, V domains shown)
VH: QVQLVESGGGLVQPGGSLRLSCAASGFTFDDYAMSWVRQAPGKGLEWVSAISWNGSSTYYAESMKGRFTISRDNAKNTLYLQMNSLKSEDTAVYYCAKDLIGSHDYWGQGTQVTVSS
VL: QAVLTQPPSVSGTLGKTLTISCAGTSSDVGYGNYVSWYQQLPGTAPKLLIYAVSTRASGIPDRFSGSKSGNTASLTISGLQSEDEADYYCASYRSSNNYAFGAGTKLTVL
notes: as for B2
As for B12, in test [2], the off-rate (koff) was determined as 0.0009 s⁻¹.

B13: 20F1 Fab (Fab, V domains shown)
VH: EVQVQESGPGLVKPSQTLSLTCTVSGGSMTGNYYAWSWIRQPPGKGLEWMGVIAYDGSTYYSPSLKSRTSISRDTSKNQFSLQLSSVSPEDTAVYYCARGPGWYSGSRNDYWGQGTQVTVSS
VL: QSALTQPPSVSGSPGKTVTISCTGTNSDVGYGNYVSWYQQLPGMAPKLLIYDVNRRASGIADRFSGSKSGNTASLTISGLQSEDEGDYHCASYRSANNAVFGGGTHLFVL
notes: as for B2
On to B13, for which the koff in test [2] is 0.0069 s⁻¹.

B14: 20F1 mAb (antibody, V domains shown)
VH: EVQVQESGPGLVKPSQTLSLTCTVSGGSMTGNYYAWSWIRQPPGKGLEWMGVIAYDGSTYYSPSLKSRTSISRDTSKNQFSLQLSSVSPEDTAVYYCARGPGWYSGSRNDYWGQGTQVTVSS
VL: QSALTQPPSVSGSPGKTVTISCTGTNSDVGYGNYVSWYQQLPGMAPKLLIYDVNRRASGIADRFSGSKSGNTASLTISGLQSEDEGDYHCASYRSANNAVFGGGTHLFVL
Turning to B14, the IC50 in test [5] amounted to 360 pM.

The values above are taken from patent US20120148607A1 (ARGEN X N V, published 2012).
